Data: IntAct's records for PubMed 12819209

B1: Prolactin receptor (Homo sapiens), P16471 (parent)
chain: MKENVASATVFTLLLFLNTCLLNGQLPPGKPEIFKCRSPNKETFTCWWRPGTDGGLPTNYSLTYHREGETLMHECPDYITGGPNSCHFGKQYTSMWRTYIMMVNATNQMGSSFSDELYVDVTYIVQPDPPLELAVEVKQPEDRKPYLWIKWSPPTLIDLKTGWFTLLYEIRLKPEKAAEWEIHFAGQQTEFKILSLHPGQKYLVQVRCKPDHGYWSAWSPATFIQIPSDFTMNDTTVWISVAVLSAVICLIIVWAVALKGYSMVTCIFPPVPGPKIKGFDAHLLEKGKSEELLSALGCQDFPPTSDYEDLLVEYLEVDDSEDQHLMSVHSKEHPSQGMKPTYLDPDTDSGRGSCDSPSLLSEKCEEPQANPSTFYDPEVIEKPENPETTHTWDPQCISMEGKIPYFHAGGSKCSTWPLPQPSQHNPRSSYHNITDVCELAVGPAGAPATLLNEAGKDALKSSQTIKSREEGKATQQREVESFHSETDQDTPWLLPQEKTPFGSAKPLDYVEIHKVNKDGALSLLPKQRENSGKPKKPGTPENNKEYAKVSGVMDNNILVLVPDPHAKNVACFEESAKEAPPSLEQNQAEKALANFTATSSKCRLQLGGLDYLDPACFTHSFH

Variants of: B1
Settings: with 1433z_human YWHAZ

Row | Variant | effect of a mutation on the interaction
1 | C413A;S414A;T415A | decreasing interaction strength
2 | T415A | decreasing interaction strength
